Assays:
Assay in all cases: bead flow cytometry, AUC minus CD4
[1] = target: SARS-CoV-2 spike receptor binding domain (RBD), recombinant (SARS-CoV-2, UniProt P0DTC2 319-541)
[2] = target: T1, SARS-CoV-2 spike S2 subunit, recombinant (SARS-CoV-2, UniProt P0DTC2 686-1213)
T1 construct: domain: S2 subunit

[3] = target: SARS-CoV-2 spike N-terminal domain (NTD), recombinant (SARS-CoV-2, UniProt P0DTC2 14-305)
[4] = target: T2, HCoV-229E spike protein (Sino Biological 40605-V08B) (HCoV-229E, UniProt P15423 16-1115)
T2 sequence: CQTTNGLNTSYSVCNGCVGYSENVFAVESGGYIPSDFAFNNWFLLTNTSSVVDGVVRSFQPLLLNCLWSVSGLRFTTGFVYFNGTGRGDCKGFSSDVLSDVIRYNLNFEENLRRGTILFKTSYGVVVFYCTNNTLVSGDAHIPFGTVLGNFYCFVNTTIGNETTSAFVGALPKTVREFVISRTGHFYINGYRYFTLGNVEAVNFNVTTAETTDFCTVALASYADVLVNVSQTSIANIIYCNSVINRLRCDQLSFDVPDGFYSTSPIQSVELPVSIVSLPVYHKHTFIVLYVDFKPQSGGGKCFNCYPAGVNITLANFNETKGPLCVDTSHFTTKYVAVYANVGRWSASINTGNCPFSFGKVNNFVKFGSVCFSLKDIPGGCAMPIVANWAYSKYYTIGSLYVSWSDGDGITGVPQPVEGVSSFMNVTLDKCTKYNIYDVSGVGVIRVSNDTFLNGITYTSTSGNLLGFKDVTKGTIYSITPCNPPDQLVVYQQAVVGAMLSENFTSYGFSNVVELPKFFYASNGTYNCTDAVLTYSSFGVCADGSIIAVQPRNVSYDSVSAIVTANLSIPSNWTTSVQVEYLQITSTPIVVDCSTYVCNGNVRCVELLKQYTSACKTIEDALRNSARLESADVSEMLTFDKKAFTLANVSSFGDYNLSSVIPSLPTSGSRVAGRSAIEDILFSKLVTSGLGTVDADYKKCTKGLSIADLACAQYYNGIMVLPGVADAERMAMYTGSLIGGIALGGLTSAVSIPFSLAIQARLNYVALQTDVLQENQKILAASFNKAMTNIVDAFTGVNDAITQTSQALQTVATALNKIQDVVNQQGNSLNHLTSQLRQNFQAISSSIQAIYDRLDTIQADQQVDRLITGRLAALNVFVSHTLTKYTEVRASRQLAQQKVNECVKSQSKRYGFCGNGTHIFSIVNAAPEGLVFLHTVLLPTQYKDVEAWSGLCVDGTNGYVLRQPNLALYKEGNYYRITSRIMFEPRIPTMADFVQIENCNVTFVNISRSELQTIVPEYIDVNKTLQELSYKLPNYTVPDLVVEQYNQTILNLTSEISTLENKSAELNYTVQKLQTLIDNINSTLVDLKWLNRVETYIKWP

[5] = target: T3, HCoV-NL63 spike protein (Sino Biological 40604-V08B) (HCoV-NL63, UniProt Q6Q1S2 19-1296)
T3 sequence: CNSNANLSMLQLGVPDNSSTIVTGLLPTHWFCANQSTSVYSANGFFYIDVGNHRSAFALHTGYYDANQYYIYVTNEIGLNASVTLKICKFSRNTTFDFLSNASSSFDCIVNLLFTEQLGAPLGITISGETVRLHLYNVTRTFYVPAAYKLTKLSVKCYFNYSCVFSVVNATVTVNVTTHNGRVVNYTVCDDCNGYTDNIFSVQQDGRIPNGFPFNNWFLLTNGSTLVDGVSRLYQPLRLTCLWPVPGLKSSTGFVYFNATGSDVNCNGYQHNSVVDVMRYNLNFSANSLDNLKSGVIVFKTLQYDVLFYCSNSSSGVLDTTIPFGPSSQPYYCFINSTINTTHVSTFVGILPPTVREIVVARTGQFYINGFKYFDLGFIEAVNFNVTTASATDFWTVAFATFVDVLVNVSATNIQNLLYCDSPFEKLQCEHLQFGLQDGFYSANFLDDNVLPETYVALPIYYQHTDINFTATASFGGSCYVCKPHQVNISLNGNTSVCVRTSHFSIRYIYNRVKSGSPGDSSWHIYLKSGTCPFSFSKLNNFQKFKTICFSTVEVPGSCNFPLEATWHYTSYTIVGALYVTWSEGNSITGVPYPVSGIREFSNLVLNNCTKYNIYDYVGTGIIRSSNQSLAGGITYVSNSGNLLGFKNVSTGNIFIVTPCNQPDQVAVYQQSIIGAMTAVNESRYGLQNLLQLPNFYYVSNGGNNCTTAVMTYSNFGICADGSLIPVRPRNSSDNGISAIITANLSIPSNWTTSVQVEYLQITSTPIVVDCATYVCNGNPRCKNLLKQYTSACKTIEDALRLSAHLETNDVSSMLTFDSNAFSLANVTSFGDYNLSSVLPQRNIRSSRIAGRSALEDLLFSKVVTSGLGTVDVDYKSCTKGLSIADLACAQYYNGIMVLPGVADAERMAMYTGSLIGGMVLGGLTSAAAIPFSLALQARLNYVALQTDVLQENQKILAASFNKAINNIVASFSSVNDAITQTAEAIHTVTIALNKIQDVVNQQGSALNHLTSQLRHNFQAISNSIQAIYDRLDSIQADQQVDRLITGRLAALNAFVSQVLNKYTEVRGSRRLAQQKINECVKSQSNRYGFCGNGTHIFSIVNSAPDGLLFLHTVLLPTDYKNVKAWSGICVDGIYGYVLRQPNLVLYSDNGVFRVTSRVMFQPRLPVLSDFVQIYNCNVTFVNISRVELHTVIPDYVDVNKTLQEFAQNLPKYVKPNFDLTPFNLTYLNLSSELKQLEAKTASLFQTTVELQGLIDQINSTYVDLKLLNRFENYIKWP

[6] = target: T4, HCoV-HKU1 spike protein (Sino Biological 40606-V08B) (HCoV-HKU1, UniProt Q0ZME7 13-1295)
T4 sequence: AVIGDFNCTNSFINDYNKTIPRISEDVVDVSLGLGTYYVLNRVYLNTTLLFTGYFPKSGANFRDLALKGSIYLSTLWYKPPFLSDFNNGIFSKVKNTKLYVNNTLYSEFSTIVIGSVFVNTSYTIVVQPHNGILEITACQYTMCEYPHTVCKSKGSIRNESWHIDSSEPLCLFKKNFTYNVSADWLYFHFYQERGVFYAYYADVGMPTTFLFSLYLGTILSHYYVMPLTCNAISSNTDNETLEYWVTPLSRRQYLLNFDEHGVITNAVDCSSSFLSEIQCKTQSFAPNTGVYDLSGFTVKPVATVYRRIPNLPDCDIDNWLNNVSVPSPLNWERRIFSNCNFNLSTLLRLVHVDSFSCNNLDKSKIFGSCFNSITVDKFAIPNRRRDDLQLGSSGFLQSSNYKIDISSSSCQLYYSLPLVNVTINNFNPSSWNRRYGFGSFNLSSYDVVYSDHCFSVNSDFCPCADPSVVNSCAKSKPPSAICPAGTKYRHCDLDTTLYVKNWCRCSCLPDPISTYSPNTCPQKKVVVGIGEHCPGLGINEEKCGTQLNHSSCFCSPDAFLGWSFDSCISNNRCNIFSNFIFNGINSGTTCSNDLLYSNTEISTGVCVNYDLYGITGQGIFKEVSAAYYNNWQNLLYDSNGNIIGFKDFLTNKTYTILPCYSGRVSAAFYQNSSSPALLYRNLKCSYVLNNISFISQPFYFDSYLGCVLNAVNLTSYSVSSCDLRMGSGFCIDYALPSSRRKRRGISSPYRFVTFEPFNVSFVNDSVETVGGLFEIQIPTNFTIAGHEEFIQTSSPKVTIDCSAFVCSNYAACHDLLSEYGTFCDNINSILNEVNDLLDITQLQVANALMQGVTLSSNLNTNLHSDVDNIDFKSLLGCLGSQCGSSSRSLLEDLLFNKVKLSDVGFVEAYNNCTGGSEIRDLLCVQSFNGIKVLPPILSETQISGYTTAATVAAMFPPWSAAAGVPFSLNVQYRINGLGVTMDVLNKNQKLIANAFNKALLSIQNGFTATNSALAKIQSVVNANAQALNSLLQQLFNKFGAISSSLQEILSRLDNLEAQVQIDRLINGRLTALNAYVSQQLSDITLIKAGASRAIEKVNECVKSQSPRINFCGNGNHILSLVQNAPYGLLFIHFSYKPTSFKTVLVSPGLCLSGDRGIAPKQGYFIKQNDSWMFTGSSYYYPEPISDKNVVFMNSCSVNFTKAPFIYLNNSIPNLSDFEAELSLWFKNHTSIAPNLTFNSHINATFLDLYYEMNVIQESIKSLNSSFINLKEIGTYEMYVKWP

Measured: binding result

B1: COV89-28 (antibody, V domains shown)
VH: EVQLVESGGGLVQPGRSLRLSCAASGFTFDDYAMHWVRQAPGKGLEWVSSISWNSGSIVYADSVTGRCTITRDNAKNSLYLQMNSLRPEDTALYYCAKGYSSSPVVYYMDVWGKGTTVTVSS
VL: DIQMTQSPSSVSASVGDRVTITCRASQGIAGWFAWYQQKPGKAPKLLIYATSSLQRGVPSRFSGSGSATHFTLTITSLQPEDFATYYCQQANIFGPGTKVDIK
no binding (tested: 200 µg/mL): [1] | [2] | [3] | [4] | [5]

B2: COV77-02 (antibody, V domains shown)
VH: QVQLVESGGGVVQPGRSLRLSCAASGFTFSDHGMHWVRQAPGKGLQWVALIWYDGSNMFYRDSVKGRFTISRDNSKNTVYLEMSSLRAEDTALYYCARGTDVWSGLSLDALDVWGQGTMVTVSP
VL: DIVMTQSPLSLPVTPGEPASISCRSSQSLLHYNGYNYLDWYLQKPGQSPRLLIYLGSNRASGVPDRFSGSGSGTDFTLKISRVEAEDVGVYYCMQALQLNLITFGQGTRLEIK
no binding (tested: 200 µg/mL): [1] | [2] | [3] | [4] | [5]

B3: COV93-04 (antibody, V domains shown)
VH: QLQLQESGSGLVKPSQTLSLTCVVSGDSISSGGYSWSWIRQQPGKALEWIGYIYHSGVTNYNPSLKSRVTISVDRSTNQFSLKLSSVTAADTAVYYCARDGKYNWFDPWGQGILVTVSS
VL: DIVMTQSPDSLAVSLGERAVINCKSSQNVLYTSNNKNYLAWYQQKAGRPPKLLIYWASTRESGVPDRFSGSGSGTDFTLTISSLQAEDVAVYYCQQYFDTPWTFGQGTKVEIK
no binding (tested: 200 µg/mL): [1] | [2] | [3] | [4] | [5]

B4: COV49-42 (antibody, V domains shown)
VH: QVHLVQSGAEVKNPGVSVKVSCKASGYTFTTSGITWVRQAPGQGLEWMGWISTYNGNTETAQTFQGRVTMTTDTSTSTAYMELRRLRSDDTAVYYCARVQSVATSSNYFFDYWGQGTRVTVSS
VL: DIQMTQSPSSLSASVGDRVTITCRASQTIDRFLNWYQQKPGKAPKLLIYAASRLQSGVPSRFSGSGSGTTYTLTISSLQPEDFATYFCQQSYSDPRALTFGGGTKVEIK
no binding (tested: 200 µg/mL): [1] | [2] | [3] | [4] | [5]

B5: COV44-26 (antibody, V domains shown)
VH: QVQLVQSGAEVKKPGASVKVSCKASGYTFSNFYMNWVRQAPGQGLEWVGLISPSAGYTAYAQMFQGRVTMTRDTSTSTVYMELSSLRSEDTAVYYCARVAVAGPNDYWGQGTLVTVSS
VL: EIVLTQSPGTLSLSPGERATLSCRASQSISSSYLAWYQQKPGQAPRLVIFAASTRATGIPDRFSGSGSGTDFTLTITRLEPEDFALYYCQHYRSSPPLWTFGQGTKVEIR
no binding (tested: 200 µg/mL): [3] | [6] | [4] | [5]

Source: patent US20250145690A1 (US Dept. of Health and Human Services, published 2025)
